Reference: patent publication US11667697

Legend:
[1] = target: CPXV ortholog of B5 (cowpox virus); assay: cell-based or functional assay
[2] = target: VARV ortholog of B5 (variola virus); assay: purified antigen ELISA
[3] = target: CPXV ortholog of B5 (cowpox virus); assay: lysate ELISA
[4] = target: MPXV ortholog of B5 (monkeypox virus); assay: lysate ELISA
[5] = target: CPXV ortholog of A25 (cowpox virus); assay: lysate ELISA
[6] = target: MPXV ortholog of A25 (monkeypox virus); assay: lysate ELISA
[7] = target: VACV A25 protein (vaccinia virus); assay: lysate ELISA
[8] = target: MPXV ortholog of I1 (monkeypox virus); assay: lysate ELISA
[9] = target: VACV I1 protein (vaccinia virus); assay: lysate ELISA
[10] = target: CPXV ortholog of I1 (cowpox virus); assay: lysate ELISA
[11] = target: MPXV ortholog of H3 (monkeypox virus); assay: cell-based or functional assay
[12] = target: CPXV ortholog of H3 (cowpox virus); assay: cell-based or functional assay
[13] = target: MPXV ortholog of H3 (monkeypox virus); assay: lysate ELISA
[14] = target: CPXV ortholog of H3 (cowpox virus); assay: lysate ELISA

B1: MPXV-66 (antibody, V domains shown)
VH: QVQLQQWGAGLLKPSETLSLTCAVHGGSFSGYFWSWIRQPPGKGLEWIGEMNHSGSTNYNPSLKSRVTISVDTSKKQFSLKLNSVTAADTAVYYCARTARTVRYFENWGQGTLVTVSS
VL: DIVMTQSPDSLAVSLGERATINCKSSQTVLYNSNNYSYLTWYQQKPGQPPRVLIYWASTRESGVPDRFSGSGSGTDFTLTISSLQAENVALYYCQQYYSTPWTFGQGTKVDIK
Work on B1 yielded a PRNT Emax, CPXV EV+C' [1] of 86%, a PRNT IC50, CPXV EV+C' [1] of 0.03 µg/mL and an EC50 [2] of 0.16 µg/mL. For the same binder, the EC50 [3] was > 29 µg/mL and the EC50 [4] was > 16 µg/mL.

B2: VACV-309 (antibody, V domains shown)
VH: EVQLLESGGGLVQPGESLKLSCAASGFTFSSYAMNWVRQAPGKGLEWVSGISGSGGSTYYADSVKGRFTVSRDNSKNTLYLQMNSLRAEDTAVYYCAKDNNYYYYGMDVWGQGTTVTVSS
VL: AIQMTQSPSSLSASVGDRVTITCRASQGIRNDLGWYQQKPGKAPKLLIYAASSLQSGVPSRFSGSGSGTDFTLTISSLQPEDFATYYCLQDYNYPRMFGQGTKVDIK
For B2, the EC50 [5] was 0.005 µg/mL, the EC50 [6] was 0.001 µg/mL and the EC50 [7] was 0.005 µg/mL.

B3: MPXV-71 (antibody, V domains shown)
V domain 1: EVQLVESGGGLVQPGESLKISCSASGFTFSDYAMHWVRQAPGQGLQYVSAISSNGHSTYYADSVKGRFTFSRDNSKNTLYLQMSSLRPEDTAVYYCVRCLLRGLISPFDYWGQGTLV
V domain 2: QSVLTQPPSVSEAPRQRVTISCSGSSSNIGNNAVNWYQQLPGKAPKLLIYYDDLLPSGVSDRFSGSKSGTTASLTISGPPEDEADFYCSTWDYSLSARVFGGGTQVTVL
With B3 the EC50 [8] was 0.006 µg/mL, the EC50 [9] was 0.022 µg/mL and the EC50 [10] was 0.014 µg/mL.

B4: MPXV-31 (antibody, V domains shown)
VH: QLQLQESGPGLVKPSETLSLTCTVSGGSISSRNFFWAWIRQPPGKGLEFIGSIFYSGGTYYNPSLKSRLSISVDTSRNQFSLRLSSVTAADTAVYYCARHMIVVLPGVPISTSFDPWGQGTL
VL: DIVMTQSPDSLAVSLGERATINCKSSQSVLSNSNNKNYLAWYQQKPGQPPRLLIYWASARESGVPDRFSGSGSGTDFTLTIISLQPEDVAVYYCQQYYSPPAELSFGGGTKVDIK
B4 was tested, and the EC50 [8] was 0.04 µg/mL, the EC50 [9] was 0.01 µg/mL and the EC50 [10] was 0.01 µg/mL.

B5: MPXV-79 (antibody, V domains shown)
VH: QVQLVQSGAEVKKPGASVKVSCKASGYSFRSNGISWVRQAPGQGFEWLGWIAAYNGDTKYVQKFQGRLTMTTDTSTDTAYMELWSLRSDDTAVYYCARDPKLGRKGSAFDIWGQGTLVIVSS
VL: EIVLTQSPATLSLSPGGRATLSCRASQSVGNYLTWYQQKPGQAPRLLIFDGSTRATGIPARFSGSGSGTDFTLTISSLEPEDFAVYYCLQRSDLYTFGQGTKVDIK
For B5, the PRNT Emax, MPXV MV [11] was 67%, the PRNT IC50, MPXV MV [11] was 12.5 µg/mL and the PRNT Emax, CPXV MV+C' [12] was 81%. The PRNT IC50, CPXV MV+C' [12] was 0.2 µg/mL, the EC50 [13] was 0.003 µg/mL and the EC50 [14] was 0.004 µg/mL.

B6: VACV-315 (antibody, V domains shown)
VH: EVQLLESGGGLVQPGGSLKLSCAASGFIFSNYAMGWVRQAPGKGLEWVSALSASDGVTSYADSVKGRFTISRDNSKNTMYLQMNRLRTEDTAIYFCAKGRARVNNIYRYFDHWGQGTLVTVSS
VL: QSVLTQPASVSGSPGQSITISCTGTSSDVGAYTFVSWYQHHPGKAPKLIIYEVSNRPSGVSDRFSGSKSGNTASLTISGLQAEDEADYYCNSYTTTSPWVFGGGTQLTVL
B6 showed a PRNT Emax, CPXV MV+C' [12] of 70%, a PRNT IC50, CPXV MV+C' [12] of 2.8 µg/mL and an EC50 [13] of 0.001 µg/mL. The EC50 [14] was 0.002 µg/mL.

B7: MPXV-9 (antibody, V domains shown)
VH: QVQLVQSGAEVKKPGASVKVSCKASGYNLTTYDIVWVRQAAGQGLEWMGWMNPKSGNTAYAERFQGRVTMTRNTSISTAYMELSSLRSEDTAVYYCARSLDSLRFLEWFHQNYYYFMDVWGKGTTVT
VL: EIVLTQSPATLSLSPGERATLSCRASQTIGGYLAWYQQIPGQAPRLLIYDASNRATGIPARFSGSGSGTDFTLTISSLEPEDFAVYYCQLRSTFGGGTKVDIK
B7 was tested, and the EC50 [5] was 0.876 µg/mL, the EC50 [6] was 0.107 µg/mL and the EC50 [7] was 0.022 µg/mL.
